The target of series [1] is T1, Mtw1-Nnf1 heterodimer (MN) (S. cerevisiae, UniProt P39731 1-289; P47149 1-201).
T1 construct: Mtw1, S. cerevisiae; Nnf1, S. cerevisiae; also called Mtw1/Nnf1 dimer; MN complex; source: E. coli BL21 (DE3), purified (HisTrap, Q flow-through, SEC); not shown: His6, N-terminal, kept
T1 sequence (looked up) 1: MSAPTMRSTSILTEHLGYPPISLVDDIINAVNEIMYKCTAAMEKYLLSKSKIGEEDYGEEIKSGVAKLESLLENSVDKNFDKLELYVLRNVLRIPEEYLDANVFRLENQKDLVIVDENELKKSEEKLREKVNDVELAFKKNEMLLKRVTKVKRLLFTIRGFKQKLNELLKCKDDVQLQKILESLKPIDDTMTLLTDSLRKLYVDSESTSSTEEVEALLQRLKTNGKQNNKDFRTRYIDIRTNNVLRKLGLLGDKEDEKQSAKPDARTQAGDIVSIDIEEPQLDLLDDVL
T1 sequence (looked up) 2: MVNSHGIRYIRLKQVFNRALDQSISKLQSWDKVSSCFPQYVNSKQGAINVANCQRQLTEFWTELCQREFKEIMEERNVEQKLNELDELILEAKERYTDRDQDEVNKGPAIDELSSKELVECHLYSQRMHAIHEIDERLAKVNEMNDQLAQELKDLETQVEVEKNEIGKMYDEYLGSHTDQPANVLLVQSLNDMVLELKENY
Put plainly: ITC; peptide (Mif2 1-41 250 μM or Ame1 1-20 800 μM) titrated into 25 μM MN; 30 mM Hepes pH 7.5, 150 mM NaCl, 1 mM TCEP, 25°C; one set of binding sites; average of 3 or 4 experiments. Particulars: both partners purified.

The target in series [2] is T1, Mtw1-Nnf1 heterodimer (MN). Kind of series: fluorescence polarisation; 0.1 μM FITC-Mif2 1-41, MN added from 0 to 4 μM; 30 mM Hepes pH 7.5, 150 mM NaCl, 1 mM TCEP, 23°C; one set of binding sites; triplicates. Particulars: both partners purified. (In fluorescence polarisation assays a small probe gives low polarisation when free and higher when bound to something large.)

Series [3] has as its system hemizygous Mtw1 deletion strain. Put plainly: Tetrad analysis, Mtw1 alleles. Particulars: Mtw1 rescue construct only source of Mtw1. Type of series: cell-based, budding yeast. How it is done: Figure 3 Analysis of Mtw1 interface mutants in vivo • Structure of the Mtw1c head I bound to Mif2 and list of key residues constituting interface I (Mif2 binding) and interface II (putative Ame1 binding) from Dimitrova et al. • Analysis of these Mtw1 mutants in vivo using the anchor‐away technique. Mtw1‐FRB strains containing RPL13‐FKBP12 for cytoplasmic anchoring and additionally harboring the indicated rescue alleles were plated in serial dilution on YEPD or YEPD + rapamycin plates incubated at 30°C. • Tetrad analysis of Mtw1‐wt or mutants. Surviving spores in which the Mtw1‐wt or mutant rescue construct was the only source of Mtw1 are indicated in pink circles. • Western blotting confirming the expression of Mtw1‐6x‐Flag wt or mutant proteins in the Mtw1‐FRB strain background. • Analytical SEC runs and accompanying SDS–PAGE of Mtw1c‐wt or Mtw1c‐5A mutant (blue), AO (gray), or a stoichiometric combination of both complexes (green) at 10 μM each. Boxes indicate corresponding fractions in left and right panels.
The inability of these alleles to support growth was not due to lack of protein expression, although the steady‐state level was reduced compared to the wild‐type as shown by Western blotting (Fig 3D). We additionally confirmed that Mtw1 interface I mutants indeed confer a lethal phenotype by introducing the respective mutations into a hemizygous Mtw1 deletion strain and performing tetrad dissection. […] The more severe phenotype of Mtw1‐3A in the FRB system compared to tetrad dissection might be due to the additional mutations in the complex genetic background of the anchor‐away strain, which might make it more sensitive to the Mtw1‐3A mutation.
Serial fourfold dilutions of overnight cultures were prepared on 96‐well plates in minimal medium starting from OD600 of 0.6. The dilutions were spotted on YPD medium with and without rapamycin or on YP‐glucose and YP‐galactose and grown at 30°C for 3 days. […]

Another series has as its system Ame1‐Okp1 (AO) complex. Put plainly: Analytical SEC of Mtw1c wild-type and mutants with Ame1-Okp1 (AO). The format is binding, budding yeast. Particulars: 10 μM each. How it is done: Figure 3 Analysis of Mtw1 interface mutants in vivo • Structure of the Mtw1c head I bound to Mif2 and list of key residues constituting interface I (Mif2 binding) and interface II (putative Ame1 binding) from Dimitrova et al. • Analysis of these Mtw1 mutants in vivo using the anchor‐away technique. Mtw1‐FRB strains containing RPL13‐FKBP12 for cytoplasmic anchoring and additionally harboring the indicated rescue alleles were plated in serial dilution on YEPD or YEPD + rapamycin plates incubated at 30°C. • Tetrad analysis of Mtw1‐wt or mutants. […]
The GST pulldown experiment was performed using BSA‐preblocked GSH Sepharose beads. […] Beads were washed twice in pulldown buffer, before Laemmli sample buffer was added to the beads (GST pulldown) or proteins were eluted in pulldown buffer supplemented with 1 mg/ml Flag peptide before addition of Laemmli sample buffer (Flag pulldown) and samples were analyzed on a Coomassie Brilliant Blue‐stained SDS–PAGE gel or Western blotting. […] Elution of proteins was monitored at 280 nm. 100 μl fractions were collected and analyzed by SDS–PAGE and Coomassie Brilliant Blue staining or Western blotting. […] After several washes with lysis buffer, proteins were eluted with 0.2 mg/ml 3xFlag peptide in lysis buffer, and fractions were analyzed by Western blotting. […]

As usually defined, the Kd is the free concentration of one partner at which half of the binding sites on the other are occupied at equilibrium, for simple one-to-one binding. High values mean weaker binding, low ones tighter binding.

Numbering of substitutions follows the chain as printed. Numbers in names are those of the source. Where no end group is shown, it is not given here.

B1: Mif2^1-41 peptide (peptide, UniProt P35201 1-41, looked up)
peptide: MDYMKLGLKSRKTGIDVKQDIPKDEYSMENIDDFFKDDETS
notes: Mif2, S. cerevisiae, residues 1-41, unlabeled, used in ITC; also called Mif2-N
The molecule B1 came in with a Kd in series [1] of 1170 nM.

B2: FITC-Mif2^1-41 (peptide, UniProt P35201 1-41, looked up)
peptide: B1 peptide
modifications: also: FITC label (position not given here)
notes: Mif2, S. cerevisiae, residues 1-41; also called Mif2-N (FITC-labeled N-terminal Mif2 peptide)
For B2, in series [2], the Kd is 380 nM.

B3: Mtw1‐5A: Mtw1 D25A D81A K82A E84A Y86A, interface I (protein, UniProt P39731 1-289, looked up, variant D25A D81A K82A E84A Y86A)
Kinetochore-associated …: T1 sequence (looked up) 1 with D25A, D81A, K82A, E84A, Y86A
For B3, the “viability of haploid spores” value in series [3] is reported as “inviable”. Further, the “interaction of Mtw1c with AO, SEC” value with Ame1‐Okp1 (AO) complex is given as “no longer able to interact efficiently with AO”.

B4: Mtw1‐3A: Mtw1 E73A N32A Y36A, interface II (protein, UniProt P39731 1-289, looked up, variant E73A N32A Y36A)
Kinetochore-associated …: T1 sequence (looked up) 1 with N32A, Y36A, E73A
For the molecule B4, the “viability of haploid spores” value in series [3] is “viable, albeit slow‐growing”. Besides, the “interaction of Mtw1c with AO, SEC” value in the series on Ame1‐Okp1 (AO) complex is “abolish AOc binding”.

B5: Mtw1-8A: Mtw1 D25A N32A Y36A E73A D81A K82A E84A Y86A, interface I+II (protein, UniProt P39731 1-289, looked up, variant D25A N32A Y36A E73A D81A K82A E84A Y86A)
Kinetochore-associated …: T1 sequence (looked up) 1 with D25A, N32A, Y36A, E73A, D81A, K82A, E84A, Y86A
Regarding B5, in series [3], the “viability of haploid spores” value is “inviable”.

B6: Ame1-N peptide (aa 1-20) (peptide, UniProt P38313 1-20, looked up)
peptide: MDRDTKLAFRLRGSHSRRTD
notes: Ame1 (CENP-U homolog), S. cerevisiae, residues 1-20; also called Ame1^1-20; Ame1_1-20
Molecule B6 gave an equilibrium dissociation constant (Kd) in series [1] of 12500 nM.

The values are drawn from article PMC7360964, “Auto‐inhibition of Mif2/CENP‐C ensures centromere‐dependent kinetochore assembly in budding yeast” (The EMBO Journal, 2020).
